{"source": "patent US7037667", "test_system": "fluorescein thiocarbamoyl-labeled (FTC) casein", "data": [{"substance": "GST-TMPRSS2 protease domain (AA 255-492)", "values": [{"measurement": "protease activity, fluorescence of FTC-casein (EnzChek protease assay)", "result": "purified recombinant GST-20P1F12/TMPRSS2 can cleave a universal substrate, namely casein in a dose dependent manner"}]}]}
